Laboratory results published in publication PMC7699638.

Biological target: MBP-ROCK2 (full-length ROCK2 with N-terminal MBP tag) (human), O75116
Test: SAXS; MBP-ROCK2 alone; 25 mM HEPES pH 7.4, 25 °C, concentration series 0.3–1.1 mg/ml; molecular mass from the scattering extrapolated to zero angle
Conditions: remark: other sources report otherwise

B1: MBP-ROCK2 (full-length ROCK2 with N-terminal MBP tag), O75116 1-1388 (enzyme)
chain: MSRPPPTGKMPGAPETAPGDGAGASRQRKLEALIRDPRSPINVESLLDGLNSLVLDLDFPALRKNKNIDNFLNRYEKIVKKIRGLQMKAEDYDVVKVIGRGAFGEVQLVRHKASQKVYAMKLLSKFEMIKRSDSAFFWEERDIMAFANSPWVVQLFYAFQDDRYLYMVMEYMPGGDLVNLMSNYDVPEKWAKFYTAEVVLALDAIHSMGLIHRDVKPDNMLLDKHGHLKLADFGTCMKMDETGMVHCDTAVGTPDYISPEVLKSQGGDGFYGRECDWWSVGVFLYEMLVGDTPFYADSLVGTYSKIMDHKNSLCFPEDAEISKHAKNLICAFLTDREVRLGRNGVEEIRQHPFFKNDQWHWDNIRETAAPVVPELSSDIDSSNFDDIEDDKGDVETFPIPKAFVGNQLPFIGFTYYRENLLLSDSPSCRETDSIQSRKNEESQEIQKKLYTLEEHLSNEMQAKEELEQKCKSVNTRLEKTAKELEEEITLRKSVESALRQLEREKALLQHKNAEYQRKADHEADKKRNLENDVNSLKDQLEDLKKRNQNSQISTEKVNQLQRQLDETNALLRTESDTAARLRKTQAESSKQIQQLESNNRDLQDKNCLLETAKLKLEKEFINLQSALESERRDRTHGSEIINDLQGRICGLEEDLKNGKILLAKVELEKRQLQERFTDLEKEKSNMEIDMTYQLKVIQQSLEQEEAEHKATKARLADKNKIYESIEEAKSEAMKEMEKKLLEERTLKQKVENLLLEAEKRCSLLDCDLKQSQQKINELLKQKDVLNEDVRNLTLKIEQETQKRCLTQNDLKMQTQQVNTLKMSEKQLKQENNHLMEMKMNLEKQNAELRKERQDADGQMKELQDQLEAEQYFSTLYKTQVRELKEECEEKTKLGKELQQKKQELQDERDSLAAQLEITLTKADSEQLARSIAEEQYSDLEKEKIMKELEIKEMMARHKQELTEKDATIASLEETNRTLTSDVANLANEKEELNNKLKDVQEQLSRLKDEEISAAAIKAQFEKQLLTERTLKTQAVNKLAEIMNRKEPVKRGNDTDVRRKEKENRKLHMELKSEREKLTQQMIKYQKELNEMQAQIAEESQIRIELQMTLDSKDSDIEQLRSQLQALHIGLDSSSIGSGPGDAEADDGFPESRLEGWLSLPVRNNTKKFGWVKKYVIVSSKKILFYDSEQDKEQSNPYMVLDIDKLFHVRPVTQTDVYRADAKEIPRIFQILYANEGESKKEQEFPVEPVGEKSNYICHKGHEFIPTLYHFPTNCEACMKPLWHMFKPPPALECRRCHIKCHKDHMDKKEEIIAPCKVYYDISTAKNLLLLANSTEEQQKWVSRLVKKIPKKPPAPDPFARSSPRTSMKIQQNQSIRRPSRQLAPNKPS
Work on B1 yielded a stoichiometry N of 2.
